Key:
[1] = parameters: species or system human; conditions: in vivo
Procedure: Five patients underwent three static whole-body PET/CT at 30, 60 and 90 min post injection on a Biograph 40 mCT scanner (Siemens Medical Solutions, Knoxville TN, USA) equipped with a dual-slice CT for 4 min of PET data per bed position, with bed positions from the base of the skull to trochanter major. For each PET/CT image, two image reconstructions were used, with a TrueX algorithm with point spread function (PSF) and time of flight (TOF) measurements, using three iterations, 21 subsets, matrix size 256 × 256 (pixel spacing of 3.2 mm) or 200 × 200 (pixel spacing of 4.07 mm), full width at half maximum (FWHM) of 5 mm. Post-processing was performed using a 3D Gaussian filter kernel, 7.5 or 3 mm. […]
All ^68Ga-RGD PET/CT scans were evaluated by two experienced nuclear medicine physicians (WJGO, EHJGA) on a dedicated workstation (Oasis software, Segami Corporation, Columbia, MD, USA) with a PET/CT viewer for automatic image registration. […]
Numerical data are presented as mean ± standard deviation (SD). […] The biological half-life of ^68Ga-RGD was calculated using bi-exponential regression analysis in MATLAB version R2014b (MathWorks, Natick, MA, USA). The analyses of optimal imaging time point and uptake values were analysed using SPSS Statistics, version 22.0.0.1 (IBM), with a one-way ANOVA followed by a Bonferroni post hoc test to adjust for multiple comparisons. […]

[2] = parameters: species or system human; conditions: in vivo; remark: listed apart in the source
Procedure: (§1) Included patients had no restrictions in food or medication intake. ^68Ga-RGD was administered intravenously using a slow bolus injection of 8 ml over 40 s (200 ± 29 MBq; range 119–218 MBq, 42 ± 8 μg; range 34–58 μg). The net injected dose was calculated by measuring the syringe before and after ^68Ga-RGD administration using a dedicated dose calibrator (VDS-405, Comecer, Joure, The Netherlands). Patients were monitored for (severe) adverse events according to the Common Terminology Criteria for Adverse Events, version 4.03. Venous blood samples at 1, 2, 5, 10, 30 and 90 min after injection were taken for pharmacokinetic and safety analysis. The concentration of ^68Ga-RGD in the blood samples (Bq/ml) was calculated by gamma counter (Wizard Detector Gamma Counter, PerkinElmer Inc., Waltham, MA, USA) while simultaneously measuring 1% standards. Safety analysis included a complete blood count test and assessment of kidney and liver function by measuring the eGFR (MDRD), total bilirubin and aspartate aminotransferase and alanine aminotransferase levels.

αvβ3 integrin [3] = tested on: T1, αvβ3 integrin; assay: clinical; conditions: human, in vivo, iv, 200 MBq, total radioactivity
T1 construct: integrin αvβ3 predominantly expressed in endothelial cells of tumour-associated blood vessels; from tissue; host or cells: tumour lesions and lymph nodes of living patients with oral squamous cell carcinoma (in vivo PET/CT)
Procedure: as §1
(§2) Five patients underwent three static whole-body PET/CT at 30, 60 and 90 min post injection on a Biograph 40 mCT scanner (Siemens Medical Solutions, Knoxville TN, USA) equipped with a dual-slice CT for 4 min of PET data per bed position, with bed positions from the base of the skull to trochanter major. For each PET/CT image, two image reconstructions were used, with a TrueX algorithm with point spread function (PSF) and time of flight (TOF) measurements, using three iterations, 21 subsets, matrix size 256 × 256 (pixel spacing of 3.2 mm) or 200 × 200 (pixel spacing of 4.07 mm), full width at half maximum (FWHM) of 5 mm. Post-processing was performed using a 3D Gaussian filter kernel, 7.5 or 3 mm. The other five patients underwent 60 min dynamic ^68Ga-RGD PET/CT starting at start of injection, of the head and neck region (15 cm FOV), to obtain time–activity curves in malignant lesions. These images were reconstructed in 33 frames ([…], 10 × 5 s, 3 × 10 s, 2 × 15 s, 5 × 30 s, 5 × 120 s, 5 × 300 s and 2 × 600 s). For all patients, a low-dose CT scan was acquired for attenuation correction and anatomical reference, with an automatically modulated X-ray tube voltage and current (100 kV, 30 mA) using Care kV and Care Dose4D (Siemens Healthcare), 512 × 512 voxels; 0.98 pixel spacing; 3 mm slice thickness; 1 pitch. The CT images for anatomical reference were reconstructed with a B31f convolution kernel, slice thickness 5 mm.
(§3) All ^68Ga-RGD PET/CT scans were evaluated by two experienced nuclear medicine physicians (WJGO, EHJGA) on a dedicated workstation (Oasis software, Segami Corporation, Columbia, MD, USA) with a PET/CT viewer for automatic image registration. A volume-of-interest (VOI) around the tumour mass was manually drawn to obtain a maximum standardised uptake value (SUVmax) of the tumour area—drawn on the static PET/CT image acquired 60 min post injection—and to determine the 41% SUVmax isocontour and SUVpeak (highest mean SUV value of 1 cm^3) within this tumour volume. The same analysis was applied on the dynamic imaging series, in which a reconstructed frame of 4 min (56–60 min p.i.) was extracted from the dynamic imaging series to obtain a static image for tumour volume delineation. The dynamic imaging series were also used to obtain time–activity curves using the PMOD Medical Imaging Program version 3.15 (PMOD technologies LLC, Zürich, Switzerland). Curves were estimated for both tumour lesions and background tissue. Tumour delineation was based on the evaluation in Oasis (Oasis software, Segami Corporation, Columbia, MD, USA), drawn on the last frame of the PET series, and subsequently copied to the other frames. For time–activity curves of the muscle, a VOI of 1.5 ml was defined in dorsolateral musculature (contralateral to the tumour) using the CT images and subsequently copied to the dynamic dataset. […]

clinical = conditions: human, in vivo, iv, SUVmax tumour
Procedure: as §1, §2, §3

αvβ3 integrin [4] = target: T2, αvβ3 integrin (Homo sapiens, UniProt P05106+P06756); assay: clinical; conditions: in vivo
T2 construct: integrin αvβ3 predominantly expressed in endothelial cells of tumour-associated blood vessels; from tissue; host or cells: tumour lesions and lymph nodes of living patients with oral squamous cell carcinoma (in vivo PET/CT)
Procedure: as §1, §2, §3

[5] = parameters: species or system human; conditions: in vivo; remark: listed apart in the source
Procedure: as §1, with “[…] The biological half-life of ^68Ga-RGD was calculated using bi-exponential regression” for “Safety”, “in MATLAB version R2014b (MathWorks, Natick, MA, USA). The analyses of optimal imaging time point and uptake values were analysed using SPSS Statistics, version 22.0.0.1 (IBM), with” for “included”, “one-way ANOVA followed by a Bonferroni post hoc” for “complete blood count”, “to adjust for multiple comparisons. […]” for “and assessment of kidney and liver function by measuring the eGFR (MDRD), total bilirubin and aspartate aminotransferase and alanine aminotransferase levels.”

T2 sequence (P06756 31-889 limits assumed): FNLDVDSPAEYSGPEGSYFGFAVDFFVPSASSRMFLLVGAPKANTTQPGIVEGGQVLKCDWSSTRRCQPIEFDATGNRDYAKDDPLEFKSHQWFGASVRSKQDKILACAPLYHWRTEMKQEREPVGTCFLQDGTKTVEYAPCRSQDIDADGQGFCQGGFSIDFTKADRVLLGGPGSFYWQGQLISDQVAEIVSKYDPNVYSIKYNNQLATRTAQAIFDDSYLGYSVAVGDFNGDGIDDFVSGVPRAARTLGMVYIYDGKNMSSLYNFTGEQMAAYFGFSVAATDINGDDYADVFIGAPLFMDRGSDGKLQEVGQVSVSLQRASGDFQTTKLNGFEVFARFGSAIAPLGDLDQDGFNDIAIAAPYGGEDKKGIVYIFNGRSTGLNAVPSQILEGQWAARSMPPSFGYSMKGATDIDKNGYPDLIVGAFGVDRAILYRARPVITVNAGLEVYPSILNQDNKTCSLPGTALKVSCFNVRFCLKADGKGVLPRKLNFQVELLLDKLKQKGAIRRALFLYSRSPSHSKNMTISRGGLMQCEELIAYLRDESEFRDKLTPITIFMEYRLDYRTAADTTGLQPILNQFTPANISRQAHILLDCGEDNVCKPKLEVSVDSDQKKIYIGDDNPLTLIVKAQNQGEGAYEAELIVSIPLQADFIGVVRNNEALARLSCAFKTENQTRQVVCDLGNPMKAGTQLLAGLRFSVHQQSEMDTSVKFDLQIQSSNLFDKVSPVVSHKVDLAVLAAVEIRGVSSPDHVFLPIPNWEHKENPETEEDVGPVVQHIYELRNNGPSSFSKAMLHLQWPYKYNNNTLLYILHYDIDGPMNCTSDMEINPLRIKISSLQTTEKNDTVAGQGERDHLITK
T2 sequence (P06756 891-1048 limits assumed): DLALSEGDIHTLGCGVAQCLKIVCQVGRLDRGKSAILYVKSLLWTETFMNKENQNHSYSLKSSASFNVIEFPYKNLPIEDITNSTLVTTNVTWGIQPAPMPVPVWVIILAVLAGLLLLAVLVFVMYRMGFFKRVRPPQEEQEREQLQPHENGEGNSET
T2 sequence (P05106 27-788): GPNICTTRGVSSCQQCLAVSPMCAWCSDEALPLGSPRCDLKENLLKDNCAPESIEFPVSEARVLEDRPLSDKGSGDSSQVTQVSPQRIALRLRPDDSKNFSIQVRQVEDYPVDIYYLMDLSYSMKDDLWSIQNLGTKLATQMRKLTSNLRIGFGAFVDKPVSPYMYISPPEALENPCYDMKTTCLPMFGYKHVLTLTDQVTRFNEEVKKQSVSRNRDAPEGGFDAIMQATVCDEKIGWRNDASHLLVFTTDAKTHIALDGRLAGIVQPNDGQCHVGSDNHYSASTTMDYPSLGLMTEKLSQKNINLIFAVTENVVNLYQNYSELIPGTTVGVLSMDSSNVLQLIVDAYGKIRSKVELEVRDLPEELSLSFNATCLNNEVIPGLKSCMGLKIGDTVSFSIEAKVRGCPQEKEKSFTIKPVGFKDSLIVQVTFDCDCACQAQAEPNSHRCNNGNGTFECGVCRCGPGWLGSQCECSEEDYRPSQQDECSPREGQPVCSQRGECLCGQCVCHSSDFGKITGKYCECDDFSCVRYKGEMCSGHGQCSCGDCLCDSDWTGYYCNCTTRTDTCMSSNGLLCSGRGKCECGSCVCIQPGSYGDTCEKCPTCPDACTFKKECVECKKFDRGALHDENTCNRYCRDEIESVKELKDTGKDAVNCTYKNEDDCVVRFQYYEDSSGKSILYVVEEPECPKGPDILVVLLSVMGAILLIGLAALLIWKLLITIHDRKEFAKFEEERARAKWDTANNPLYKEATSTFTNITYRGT

N=C(N)NCCC[C@@H]1NC(=O)[C@H](CCCCNC(=O)CC[C@H](NC(=O)CN2CCN(CC(=O)O)CCN(CC(=O)O)CCN(CC(=O)O)CC2)C(=O)NCCCC[C@@H]2NC(=O)[C@@H](Cc3ccccc3)NC(=O)[C@H](CC(=O)O)NC(=O)CNC(=O)[C@H](CCCNC(=N)N)NC2=O)NC(=O)[C@@H](Cc2ccccc2)NC(=O)[C@H](CC(=O)O)NC(=O)CNC1=O [^68Ga-RGD, [^68Ga]Ga-DOTA-E-[c(RGDfK)]2, metal not drawn]
distribution half-life (t1/2α) [1]: 0.14 ± 0.07 min
laboratory values [2]: within normal ranges
vital signs and (serious) adverse events [2]: no changes in vital signs nor any (serious) adverse events
SUV (αvβ3 integrin [3]; mean SUVmax in lymph nodes with radiotracer uptake): 4.4 ± 2.3 SUV
SUV at 0.5 h (αvβ3 integrin [3]; mean SUVmax in tumour tissue): 5.7 ± 0.8 SUV
SUV at 1 h (αvβ3 integrin [3]; mean SUVmax in tumour tissue): 5.5 ± 1.2 SUV
SUV at 1.5 h (αvβ3 integrin [3]; mean SUVmax in tumour tissue): 4.8 ± 1.2 SUV
SUV at 1 h (clinical): 6.5 SUV
SUVmax in lymph nodes with radiotracer uptake, range (αvβ3 integrin [4]): 1.8-7.6
time after injection at which plateau phase was reached in tumour tissue (αvβ3 integrin [4]): 15 min
time after injection at which tracer accumulation in tumour tissue plateaued (αvβ3 integrin [4]): 10 min
tumour-to-muscle tissue ratio (mean) (αvβ3 integrin [4]): 6.4 ± 0.7
elimination half-life [5]: 23.0 ± 2.3 min
uptake by blood cells (whole blood versus plasma concentration) [5]: not taken up by the blood cells

Source: PMC7515959, “Imaging angiogenesis in patients with head and neck squamous cell carcinomas by [^68Ga]Ga-DOTA-E-[c(RGDfK)]2 PET/CT” (European Journal of Nuclear Medicine and Molecular Imaging, 2020)
